Experimental data from the Human Domainome abundance scans (Beltran et al. 2025).
± gives the uncertainty stated by the source.

B1: CD2-associated protein, residues 109 to 169; numbered along this chain, Q9Y5K6 (parent)
chain: KKRQCKVLFEYIPQNEDELELKVGDIIDINEEVEEGWWSGTLNNKLGLFPSNFVKELEVTD

Variants of: B1
Assay: abundance fitness (aPCA) (normalised: wild type 0, dead -1); higher = more abundant; growth selection in yeast, the domain comes from the species named
Conditions: Homo sapiens
In the case of V59M, the abundance fitness is reported as -0.219 ± 0.12. Variant V59K has an abundance fitness of -0.283 ± 0.27. V59N gave an abundance fitness of -0.342 ± 0.47. V59E showed an abundance fitness of 0.174 ± 0.14. V59F gave an abundance fitness of 0.229 ± 0.14. V59Q showed an abundance fitness of -0.166 ± 0.13. Variant V59C has an abundance fitness of -0.123 ± 0.13. Variant V59H has an abundance fitness of -0.012 ± 0.13. L21M gave an abundance fitness of -0.319 ± 0.37. For L21N, the abundance fitness was -0.355 ± 0.29. In the case of L21G, the abundance fitness is reported as -0.348 ± 0.16. K22Q gave an abundance fitness of -0.406 ± 0.19. K22P showed an abundance fitness of -0.612 ± 0.43. K22I showed an abundance fitness of -0.308 ± 0.44. With K22G the abundance fitness was -0.182 ± 0.27. K22C gave an abundance fitness of -0.08 ± 0.39. For K22T, the abundance fitness was 0.216 ± 0.24. With N44P the abundance fitness was -0.356 ± 0.37. G36D showed an abundance fitness of -0.178 ± 0.079. In the case of G36C, the abundance fitness is reported as -0.467 ± 0.089. Variant G36V has an abundance fitness of -0.651 ± 0.12. G36P gave an abundance fitness of -0.939 ± 0.25. In the case of G36K, the abundance fitness is reported as -0.278 ± 0.21. G36I showed an abundance fitness of -0.605 ± 0.11. With G36H the abundance fitness was -0.375 ± 0.09. In the case of D28Y, the abundance fitness is reported as -0.271 ± 0.16. D28W gave an abundance fitness of -0.268 ± 0.15. In the case of D28L, the abundance fitness is reported as -0.4 ± 0.12. With G40A the abundance fitness was -0.747 ± 0.47. G40W gave an abundance fitness of -0.668 ± 0.16. T41S showed an abundance fitness of -0.35 ± 0.15. T41M showed an abundance fitness of -0.162 ± 0.12. In the case of T41A, the abundance fitness is reported as -0.182 ± 0.1. In the case of T41I, the abundance fitness is reported as -0.246 ± 0.19. T41N showed an abundance fitness of -0.011 ± 0.45. In the case of T41V, the abundance fitness is reported as 0.078 ± 0.09. With L19M the abundance fitness was -0.319 ± 0.29. Work on L19W yielded an abundance fitness of -1.18 ± 0.42. Variant L19K has an abundance fitness of -0.727 ± 0.43. In the case of L19E, the abundance fitness is reported as -0.641 ± 0.34. Work on L19A yielded an abundance fitness of -0.906 ± 0.43. For K6M, the abundance fitness was 0.151 ± 0.08. In the case of K6W, the abundance fitness is reported as -0.119 ± 0.086. Work on K6F yielded an abundance fitness of -0.042 ± 0.059. Work on K6L yielded an abundance fitness of 0.255 ± 0.046. In the case of K6R, the abundance fitness is reported as 0.122 ± 0.054. Variant K6P has an abundance fitness of -0.761 ± 0.094. Variant F9H has an abundance fitness of 0.145 ± 0.35. For F9R, the abundance fitness was 0.18 ± 0.075. Work on F9I yielded an abundance fitness of 0.131 ± 0.3. With P50N the abundance fitness was -0.045 ± 0.16. With P50T the abundance fitness was -0.367 ± 0.16. With P50H the abundance fitness was 0.078 ± 0.17. In the case of P50K, the abundance fitness is reported as -0.226 ± 0.12. In the case of P50L, the abundance fitness is reported as -0.665 ± 0.17. With P50R the abundance fitness was -0.064 ± 0.075. E34N gave an abundance fitness of -0.337 ± 0.44. In the case of E34A, the abundance fitness is reported as -0.167 ± 0.15. Variant E34S has an abundance fitness of 0.016 ± 0.11. Work on E34K yielded an abundance fitness of 0.299 ± 0.3. In the case of E34D, the abundance fitness is reported as -0.3 ± 0.15. Work on E34V yielded an abundance fitness of -0.05 ± 0.13. Variant E58L has an abundance fitness of -0.062 ± 0.081. E58F showed an abundance fitness of -0.207 ± 0.15. In the case of E58K, the abundance fitness is reported as 0.027 ± 0.12. For E58N, the abundance fitness was -0.057 ± 0.12. Work on E32A yielded an abundance fitness of -0.38 ± 0.24. Variant E32R has an abundance fitness of -0.407 ± 0.25. Variant E32K has an abundance fitness of -0.188 ± 0.2. E32G gave an abundance fitness of -0.188 ± 0.17. For E32C, the abundance fitness was -0.274 ± 0.3. Variant E32V has an abundance fitness of -0.155 ± 0.3. Variant E32L has an abundance fitness of -0.689 ± 0.42. With N15F the abundance fitness was -0.448 ± 0.15. For N15T, the abundance fitness was -0.097 ± 0.1. N15W showed an abundance fitness of -0.483 ± 0.15. Variant N15Q has an abundance fitness of -0.26 ± 0.13. With N15P the abundance fitness was -0.639 ± 0.17. R3W showed an abundance fitness of -0.372 ± 0.26. With R3H the abundance fitness was -0.122 ± 0.099. Work on R3S yielded an abundance fitness of -0.364 ± 0.061. For R3D, the abundance fitness was -0.283 ± 0.13. In the case of R3Q, the abundance fitness is reported as -0.963 ± 0.31. R3F gave an abundance fitness of -0.451 ± 0.1. R3Y showed an abundance fitness of -0.58 ± 0.11. For R3P, the abundance fitness was -0.572 ± 0.15. R3L showed an abundance fitness of -0.178 ± 0.086. L57P showed an abundance fitness of -0.508 ± 0.23. In the case of L57S, the abundance fitness is reported as -0.601 ± 0.14. Variant L57F has an abundance fitness of -0.148 ± 0.13. Variant L57W has an abundance fitness of -0.486 ± 0.18. In the case of L57V, the abundance fitness is reported as -0.239 ± 0.13. With L57K the abundance fitness was -0.263 ± 0.15. For E20K, the abundance fitness was -0.002 ± 0.46. With E20C the abundance fitness was 0.107 ± 0.24. E20A showed an abundance fitness of -0.015 ± 0.18. E20V gave an abundance fitness of -0.435 ± 0.25. E20I showed an abundance fitness of -0.502 ± 0.34. I29M showed an abundance fitness of 0.038 ± 0.16. With I29S the abundance fitness was -0.737 ± 0.22. Variant I29G has an abundance fitness of -0.31 ± 0.24. V23P showed an abundance fitness of -0.08 ± 0.28. Work on V23H yielded an abundance fitness of -0.677 ± 0.38. For V23M, the abundance fitness was -0.34 ± 0.17. G47P showed an abundance fitness of -0.82 ± 0.17. V54L showed an abundance fitness of -0.753 ± 0.15. V54G gave an abundance fitness of -0.661 ± 0.16. V54T showed an abundance fitness of -0.222 ± 0.15. V54N gave an abundance fitness of -0.84 ± 0.44. With L8M the abundance fitness was 0.33 ± 0.22. Variant L8S has an abundance fitness of -0.082 ± 0.12. L8K showed an abundance fitness of -0.304 ± 0.14. For L8E, the abundance fitness was -0.088 ± 0.18. With W38R the abundance fitness was -0.586 ± 0.11. In the case of W38A, the abundance fitness is reported as -0.752 ± 0.22. For W38Y, the abundance fitness was 0.109 ± 0.13. W38Q showed an abundance fitness of -0.55 ± 0.15. Variant W38G has an abundance fitness of -0.569 ± 0.16. Work on W38M yielded an abundance fitness of -0.223 ± 0.11. Work on V33F yielded an abundance fitness of -0.242 ± 0.23. Work on V33Q yielded an abundance fitness of -0.55 ± 0.29. For V33I, the abundance fitness was 0.129 ± 0.23. V33M showed an abundance fitness of 0.085 ± 0.27. Variant V33E has an abundance fitness of -0.192 ± 0.2. For G24P, the abundance fitness was -0.838 ± 0.46. For G24Y, the abundance fitness was -0.56 ± 0.4. Work on G24F yielded an abundance fitness of -0.57 ± 0.32. Work on G24V yielded an abundance fitness of -0.615 ± 0.26. Variant G24L has an abundance fitness of -0.781 ± 0.22. For G24S, the abundance fitness was -0.611 ± 0.17. For G24T, the abundance fitness was -0.559 ± 0.27. L46E gave an abundance fitness of 0.138 ± 0.11. Variant L46C has an abundance fitness of 0.127 ± 0.058. L46F showed an abundance fitness of 0.092 ± 0.046. Variant L46P has an abundance fitness of -0.196 ± 0.074. For L46G, the abundance fitness was -0.303 ± 0.076. L48W gave an abundance fitness of -0.201 ± 0.1. L48G gave an abundance fitness of -0.618 ± 0.11. L48S gave an abundance fitness of -0.438 ± 0.091. For L48C, the abundance fitness was -0.094 ± 0.13. Variant L48E has an abundance fitness of -0.539 ± 0.14. L48N showed an abundance fitness of -0.187 ± 0.14. L48R gave an abundance fitness of 0.273 ± 0.074. For L48H, the abundance fitness was -0.291 ± 0.11. D25K gave an abundance fitness of -0.106 ± 0.3. D25R gave an abundance fitness of -0.484 ± 0.22. D25T gave an abundance fitness of -0.495 ± 0.25. K55G gave an abundance fitness of -0.131 ± 0.083. In the case of K55N, the abundance fitness is reported as -0.193 ± 0.27. Variant K55R has an abundance fitness of 0.017 ± 0.064. For K55L, the abundance fitness was -0.29 ± 0.064. Work on K55M yielded an abundance fitness of 0.009 ± 0.091. With K55Q the abundance fitness was 0.064 ± 0.096. Variant K55C has an abundance fitness of -0.142 ± 0.11. Work on K55I yielded an abundance fitness of -0.077 ± 0.1. In the case of S51L, the abundance fitness is reported as -0.366 ± 0.088. In the case of S51I, the abundance fitness is reported as -0.178 ± 0.27. S51K showed an abundance fitness of -0.12 ± 0.13. Work on S51D yielded an abundance fitness of -0.324 ± 0.24. For S51R, the abundance fitness was -0.361 ± 0.091. In the case of S51E, the abundance fitness is reported as -0.762 ± 0.33. Work on S51Q yielded an abundance fitness of -0.307 ± 0.15. With S51P the abundance fitness was -0.429 ± 0.12. N30P gave an abundance fitness of -0.438 ± 0.32. Variant I26V has an abundance fitness of -0.262 ± 0.11. With I26A the abundance fitness was -0.912 ± 0.27. I26W gave an abundance fitness of -0.442 ± 0.28.
